Experiments:
[1] = target: Recombinant DR3-Fc (UniProt Q93038); test: ELISA; DR3-Fc immobilised non-specifically on Maxisorp plates (overnight, 4 °C), casein block; TL1A added in 3-fold dilutions, overnight 4 °C; bound TL1A detected with polyclonal rabbit anti-human TL1A-biotin and streptavidin-HRP; concentrations normalised to TL1A trimers; triplicate
[2] = target: Recombinant DR3-Fc (UniProt Q93038); test: ELISA; receptor (DR3-Fc; DcR3) immobilised on Maxisorp plates, TL1A variant titrated in 3-fold dilutions, overnight 4 °C, detected with anti-human TL1A-biotin and streptavidin-HRP; concentrations normalised to TL1A trimer; triplicate
[3] = target: DcR3 (UniProt O95407); test: as above
Chain of DcR3 (O95407 30-300): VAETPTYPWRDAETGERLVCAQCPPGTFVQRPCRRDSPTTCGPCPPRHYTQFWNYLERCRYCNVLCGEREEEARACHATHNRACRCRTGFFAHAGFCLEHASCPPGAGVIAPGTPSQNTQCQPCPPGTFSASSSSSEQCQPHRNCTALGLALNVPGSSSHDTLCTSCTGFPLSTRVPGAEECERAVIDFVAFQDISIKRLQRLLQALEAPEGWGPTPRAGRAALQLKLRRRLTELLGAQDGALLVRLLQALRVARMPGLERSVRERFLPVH

Chain of Recombinant DR3-Fc (Q93038 25-199): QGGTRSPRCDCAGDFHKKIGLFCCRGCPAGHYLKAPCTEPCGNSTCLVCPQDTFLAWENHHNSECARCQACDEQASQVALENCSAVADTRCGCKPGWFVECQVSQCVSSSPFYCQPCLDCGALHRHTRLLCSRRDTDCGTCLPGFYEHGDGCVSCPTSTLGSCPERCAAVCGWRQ

Substance	EC50 [1] [nM]	EC50 [2] [nM]	EC50 [3] [nM]
Fc-His-TL1A (TL1W61) (complex)	10.2		
HSA-scTL1A (TL1W15) (from UniProt O95150 84-251; O95150 84-251; O95150 84-251) (ligand)	29.2		
His-scTL1A TL1W19 (from UniProt O95150 84-251; O95150 84-251; O95150 84-251) (ligand)	27.3		
TL1W24 (F209A) (from UniProt O95150 1-251) (ligand)		281	30.7
TL1W27 (T239E) (from UniProt O95150 1-251) (ligand)			34.3
TL1W37 (L123E) (from UniProt O95150 1-251) (ligand)		423	24.3
TL1W39 (L123G) (from UniProt O95150 1-251) (ligand)		184	38.2
TL1W41 (E120A) (from UniProt O95150 1-251) (ligand)		100	32.6
TL1W43 (Y188S) (from UniProt O95150 1-251) (ligand)		207	72.2
TL1W44 (P189K) (from UniProt O95150 1-251) (ligand)		168	59.1
TL1W46 (T239W) (from UniProt O95150 1-251) (ligand)		284	
TL1W47 (E241A) (from UniProt O95150 1-251) (ligand)		260	1310
TL1W81 (K111S) (from UniProt O95150 1-251) (ligand)		34.4	50.9
TL1W84 (E120H) (from UniProt O95150 1-251) (ligand)		182	55.7
TL1W85 (G124S) (from UniProt O95150 1-251) (ligand)		296	57.1
TL1W87 (G124D) (from UniProt O95150 1-251) (ligand)		14.8	
TL1W93 (M158K) (from UniProt O95150 1-251) (ligand)		22.5	55.9

Substance	EC50 [1] [nM]	EC50 [2] [nM]	EC50 [3] [nM]
TL1W94 (M158E) (from UniProt O95150 1-251) (ligand)		58.7	18.7
TL1W98 (K173R) (from UniProt O95150 1-251) (ligand)		2050	27.8
TL1W101 (S176N) (from UniProt O95150 1-251) (ligand)			20.4
TL1W102 (S176K) (from UniProt O95150 1-251) (ligand)		182	29.2
TL1W104 (T185L) (from UniProt O95150 1-251) (ligand)		49.4	19.3
TL1W106 (T185D) (from UniProt O95150 1-251) (ligand)		124	79.9
TL1W108 (S187A) (from UniProt O95150 1-251) (ligand)		39.1	
TL1W112 (P189F) (from UniProt O95150 1-251) (ligand)		202	66.1
TL1W113 (P189S) (from UniProt O95150 1-251) (ligand)		1000	19.8
TL1W116 (T192K) (from UniProt O95150 1-251) (ligand)		77	23.3
TL1W120 (S206K) (from UniProt O95150 1-251) (ligand)		114	91
TL1W121 (S206E) (from UniProt O95150 1-251) (ligand)		105	17.2
TL1W132 (T239A) (from UniProt O95150 1-251) (ligand)		144	27.2
TL1W134 (T239K) (from UniProt O95150 1-251) (ligand)			21.5
TL1W136 (K240F) (from UniProt O95150 1-251) (ligand)		266	178
TL1W138 (K240D) (from UniProt O95150 1-251) (ligand)			59.5
TL1W139 (E241Q) (from UniProt O95150 1-251) (ligand)			17.3

More lines, in order of falling EC50 [3], values ahead:

EC50 [1] [nM]	EC50 [2] [nM]	EC50 [3] [nM]	Substance
		16.9	TL1W130 (Y238R) (from UniProt O95150 1-251) (ligand)
	44.2	16.7	TL1W111 (S187D) (from UniProt O95150 1-251) (ligand)
	30.7	16.4	TL1W40 (L123S) (from UniProt O95150 1-251) (ligand)
	87	16.4	TL1W96 (R170E) (from UniProt O95150 1-251) (ligand)
	33.7	15.8	TL1W110 (S187K) (from UniProt O95150 1-251) (ligand)
	110	15.4	TL1W124 (N207k) (from UniProt O95150 1-251) (ligand)
	324	15	TL1W100 (S176L) (from UniProt O95150 1-251) (ligand)
	56.8	13.7	TL1W126 (F209W) (from UniProt O95150 1-251) (ligand)
		13.5	TL1W88 (R156A) (from UniProt O95150 1-251) (ligand)
	113	12	TL1W117 (T192E) (from UniProt O95150 1-251) (ligand)
	336	11.8	TL1W137 (K240S) (from UniProt O95150 1-251) (ligand)
	34.8	11.5	TL1W99 (S176A) (from UniProt O95150 1-251) (ligand)
	57.9	11.5	TL1W103 (T185A) (from UniProt O95150 1-251) (ligand)
	77.7	11.4	TL1W42 (F114A) (from UniProt O95150 1-251) (ligand)
	180	11.3	TL1W105 (T185N) (from UniProt O95150 1-251) (ligand)
	188	11	TL1W90 (R156K) (from UniProt O95150 1-251) (ligand)
		10.8	TL1W133 (T239F) (from UniProt O95150 1-251) (ligand)
	25.8	10.6	TL1W82 (K111E) (from UniProt O95150 1-251) (ligand)
	14.2	10.6	TL1W115 (T192F) (from UniProt O95150 1-251) (ligand)
		10.5	TL1W128 (Y238S) (from UniProt O95150 1-251) (ligand)
	23.3	10	TL1W114 (T192A) (from UniProt O95150 1-251) (ligand)
	506	9.8	TL1W125 (N207E) (from UniProt O95150 1-251) (ligand)
	446	9	TL1W129 (Y238K) (from UniProt O95150 1-251) (ligand)

EC50 [1] [nM]	EC50 [2] [nM]	EC50 [3] [nM]	Substance
	4620	8.9	TL1W127 (Y238A) (from UniProt O95150 1-251) (ligand)
	41.7	8.8	TL1W118 (S206A) (from UniProt O95150 1-251) (ligand)
	26.8	8.6	TL1W123 (N207S) (from UniProt O95150 1-251) (ligand)
		8.5	TL1W135 (K240A) (from UniProt O95150 1-251) (ligand)
		8.3	TL1W91 (R156E) (from UniProt O95150 1-251) (ligand)
	77.2	8.1	TL1W78 (R103H) (from UniProt O95150 1-251) (ligand)
	87.5	8.1	TL1W119 (S206F) (from UniProt O95150 1-251) (ligand)
		8	TL1W89 (R156Y) (from UniProt O95150 1-251) (ligand)
	710	7.6	TL1W29 (P189A) (from UniProt O95150 1-251) (ligand)
	565	7.6	TL1W32 (Y188A) (from UniProt O95150 1-251) (ligand)
	204	7.1	TL1W79 (R103E) (from UniProt O95150 1-251) (ligand)
	131	6.7	TL1W97 (K173S) (from UniProt O95150 1-251) (ligand)
	300	6.6	TL1W131 (Y238E) (from UniProt O95150 1-251) (ligand)
	63.8	6.2	TL1W107 (D186Y) (from UniProt O95150 1-251) (ligand)
	22.6	5.7	TL1W28 (E190G) (from UniProt O95150 1-251) (ligand)
		5.7	TL1W33 (E241L) (from UniProt O95150 1-251) (ligand)
	16.4	4.7	TL1W30 (N112E) (from UniProt O95150 1-251) (ligand)
	13.4	3.7	TL1W25 (N207A) (from UniProt O95150 1-251) (ligand)
	25	3.3	TL1W33 (R103A) (from UniProt O95150 1-251) (ligand)
		2.9	TL1W86 (G124K) (from UniProt O95150 1-251) (ligand)
	9.5	2.5	TL1W31 (R103Q) (from UniProt O95150 1-251) (ligand)
		2.2	TL1W83 (E120K) (from UniProt O95150 1-251) (ligand)

Reference: article PMC9709071
